Measured values: patent US20190374506A1 (BETH ISREAL DEACONESS MEDICAL CENTER, published 2019)
Each block holds one binder with its values, some of them ahead of it.

B3: Phosphatase And Tensin Homolog Deleted On Chromosome Ten (PTEN) (enzyme)
chain: not shown
notes: also called endogenous PTEN; PTEN WT

Legend:
Flag-WWP1 = biological target: T1, Flag-WWP1 (Homo sapiens (Human), UniProt Q9H0M0 1-922); experiment: recombinant Flag-WWP1 incubated with immunopurified recombinant NEDD4-1, western blot (FIG. 2C)
T1 construct: also called full-length Flag-WWP1; recombinant Flag-WWP1; not shown: Flag tag
Experimental: FIG. 2C is a Western blot showing that WWP1 binds NEDD4-1 in vitro. Recombinant Flag-WWP1 were incubated with immunopurified recombinant NEDD4-1, and then analysed by western blot.

[1] = biological target: T2, WW domain containing E3 ubiquitin protein ligase 1 (WWP1) (human, UniProt Q9H0M0 1-922, limits assumed); experiment: anti-PTEN immunoprecipitation from DU145 cells, western blot (FIG. 2B); both ligases found in the same complex
T2 construct: also called endogenous WWP1; WW domain-containing protein-1

[2] = biological target: B3; experiment: co-immunoprecipitation with anti-NEDD4 antibody from PWRE-1 cell lysates after 16 h normoxia (N) or hypoxia (H), western blot
Experimental: FIG. 13D is a Western blot showing that NEDD4-1 switches its interaction proteins under different physiological conditions. PWRE-1 cells were cultured in normoxic or hypoxic conditions for 16 hours. Total cell lysates were immunoprecipitated with anti-NEDD4 antibody, and then examined by western blot with indicated antibodies.
(§1) Western Blotting and Immunoprecipitation. For western blotting, cells were lysed in RIPA buffer (Boston BioProducts) supplemented with protease (Roche) and phosphatase (Roche) inhibitor. Proteins were separated on NuPAGE 4-12% Bis-Tris gradient gels (Invitrogen), transferred to polyvinylidine difluoride membranes (Immobilon P, Millipore) and the blots were probed with the indicated antibodies. For immunoprecipitation, PC3, 293T and MEF cells were transfected with the indicated expression vectors by using LIPOFECTAMIN 2000 (Life Technologies). 24 hours after transfection, cells were lysed in RIPA buffer with protease (Roche) and phosphatase (Roche) inhibitor. 500 μg of total lysates were pre-cleared for 30 minutes at 4° C., and then immunoprecipitated with anti-Myc (Cell Signaling Technology 9B11, 1:500), or anti-PTEN (Cell Signaling Technology 9559, 1:500) antibody overnight at 4° C. The Protein-A or Protein-G sepharose beads (GE Healthcare) were then added and incubated for another 2 hours. The immunoprecipitates were washed with RIPA buffer three times. […]

[3] = biological target: the molecule itself; experiment: self-association of PTEN in Wwp1-/- against Wwp1+/+ MEFs, non-reducing/non-denaturing gel (FIG. 5F); similar results in Nedd4-/- MEFs (FIG. 5I)
From the text: Similar results were also obtained in Nedd4^{-/-} MEFs (FIG. 5I, FIG. 5J).
as §1, with “times. In denaturing conditions, standard Laemmli-Buffer with 5% final concentration of β-mercaptoethanol was added to the samples, which were then boiled and separated on NuPAGE 4-12% Bis-Tris gradient gels (Invitrogen).” for “times.”

[4] = biological target: T3, Flag-WWP1 ΔWW domain (deletion 341-547) (Homo sapiens (Human), UniProt Q9H0M0 1-922); experiment: immunoprecipitation and western blot, 293 cells (FIG. 4E)
T3 construct: The two kept ranges are counted on the 922-residue WWP1 entry; not shown: Flag tag
T3 sequence: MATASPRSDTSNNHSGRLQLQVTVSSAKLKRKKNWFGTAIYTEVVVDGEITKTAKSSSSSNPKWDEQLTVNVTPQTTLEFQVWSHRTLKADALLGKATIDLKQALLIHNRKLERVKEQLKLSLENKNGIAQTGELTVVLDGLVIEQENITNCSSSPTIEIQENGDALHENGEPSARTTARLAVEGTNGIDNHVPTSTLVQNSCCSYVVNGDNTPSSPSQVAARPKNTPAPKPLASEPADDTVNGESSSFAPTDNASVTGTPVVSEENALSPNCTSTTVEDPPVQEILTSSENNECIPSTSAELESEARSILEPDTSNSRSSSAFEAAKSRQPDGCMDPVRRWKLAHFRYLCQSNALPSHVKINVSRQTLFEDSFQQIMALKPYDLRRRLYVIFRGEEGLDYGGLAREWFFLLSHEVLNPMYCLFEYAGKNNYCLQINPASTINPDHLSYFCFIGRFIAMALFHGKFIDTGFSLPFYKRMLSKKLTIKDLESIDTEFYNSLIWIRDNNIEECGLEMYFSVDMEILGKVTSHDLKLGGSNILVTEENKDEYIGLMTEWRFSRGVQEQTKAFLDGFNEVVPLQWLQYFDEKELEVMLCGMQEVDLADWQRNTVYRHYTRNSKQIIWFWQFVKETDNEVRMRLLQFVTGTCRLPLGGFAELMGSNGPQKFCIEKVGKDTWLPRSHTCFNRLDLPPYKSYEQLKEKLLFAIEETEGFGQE
Experimental: Lysates of 293 cells transfected with indicated constructs were analysed by immunoprecipitation and/or western blot with indicated antibodies.
as §1

[5] = biological target: T2, WW domain containing E3 ubiquitin …; experiment: anti-PTEN immunoprecipitation from DU145 cells, western blot (FIG. 2B)
[6] = biological target: T2, WW domain containing E3 ubiquitin …; experiment: immunoprecipitation of exogenous PTEN from DU145 cells, mass spectrometry (FIG. 2A)
From the text: FIG. 2A is a Western blot. Lysates from DU145 cells transfected with HA-PTEN were immunoprecipitated with an anti-PTEN antibody followed by mass-spectrometric peptide sequencing. WWP1 and NEDD4-1 were identified.
In order to identify the E3 ligases that induce PTEN atypical K27-linked poly-ubiquitination, exogenous PTEN was immunoprecipitated from DU145 cells, followed by identification of the proteins that interacted with PTEN by mass spectrometry (FIG. 2A; FIG. 18).

[7] = biological target: T4, Poly [ADP-ribose] polymerase 1 (human (endogenous protein of DU145 …, UniProt P09874)); experiment: anti-PTEN immunoprecipitation from DU145 cells transfected with HA-PTEN, SDS-PAGE, mass-spectrometric peptide sequencing of the bands (association in the precipitate)
T4 construct: endogenous, identified by mass spectrometry

[8] = biological target: T5, Sperm-associated antigen 5 (human (endogenous protein of DU145 …, UniProt Q96R06)); experiment: as above
T5 construct: endogenous, identified by mass spectrometry
T5 sequence (looked up): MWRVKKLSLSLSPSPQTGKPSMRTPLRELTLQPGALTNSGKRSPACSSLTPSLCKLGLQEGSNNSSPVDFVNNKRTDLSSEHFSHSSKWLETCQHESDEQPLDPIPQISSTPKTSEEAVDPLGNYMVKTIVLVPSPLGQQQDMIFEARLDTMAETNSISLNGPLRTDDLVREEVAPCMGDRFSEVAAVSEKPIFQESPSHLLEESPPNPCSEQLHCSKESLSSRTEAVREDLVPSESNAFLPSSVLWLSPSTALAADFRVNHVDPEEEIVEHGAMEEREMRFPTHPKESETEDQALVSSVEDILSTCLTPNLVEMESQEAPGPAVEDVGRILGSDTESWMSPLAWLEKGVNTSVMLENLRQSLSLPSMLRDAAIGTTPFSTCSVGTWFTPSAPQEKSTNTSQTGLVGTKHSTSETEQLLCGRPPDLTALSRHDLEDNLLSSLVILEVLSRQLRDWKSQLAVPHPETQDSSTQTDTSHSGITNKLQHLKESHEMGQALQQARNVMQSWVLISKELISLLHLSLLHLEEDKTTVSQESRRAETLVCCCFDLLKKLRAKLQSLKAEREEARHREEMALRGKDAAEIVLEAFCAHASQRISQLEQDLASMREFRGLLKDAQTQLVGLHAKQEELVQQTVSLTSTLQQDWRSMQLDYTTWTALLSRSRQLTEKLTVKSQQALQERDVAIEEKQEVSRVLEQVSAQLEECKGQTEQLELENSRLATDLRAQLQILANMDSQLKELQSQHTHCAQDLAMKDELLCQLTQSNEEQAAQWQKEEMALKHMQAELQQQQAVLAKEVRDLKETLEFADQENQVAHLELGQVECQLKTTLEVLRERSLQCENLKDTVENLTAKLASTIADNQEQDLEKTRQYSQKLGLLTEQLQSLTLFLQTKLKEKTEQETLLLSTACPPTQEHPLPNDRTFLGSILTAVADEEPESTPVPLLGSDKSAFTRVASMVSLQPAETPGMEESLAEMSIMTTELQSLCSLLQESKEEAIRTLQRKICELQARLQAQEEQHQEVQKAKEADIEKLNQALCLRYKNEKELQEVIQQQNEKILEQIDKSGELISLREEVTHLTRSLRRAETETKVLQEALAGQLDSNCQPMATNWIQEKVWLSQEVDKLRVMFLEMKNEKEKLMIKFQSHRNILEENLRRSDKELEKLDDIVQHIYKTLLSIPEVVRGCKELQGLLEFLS

[9] = biological target: T6, ATP dependent RNA helicase A (human (endogenous protein of DU145 …, UniProt Q08211)); experiment: as above
T6 construct: endogenous, identified by mass spectrometry

[10] = biological target: Isoform 2 of Telomere-associated protein RIF1; experiment: as above
Chain of Isoform 2 of Telomere-associated protein RIF1 (chain, as listed by the source limits assumed): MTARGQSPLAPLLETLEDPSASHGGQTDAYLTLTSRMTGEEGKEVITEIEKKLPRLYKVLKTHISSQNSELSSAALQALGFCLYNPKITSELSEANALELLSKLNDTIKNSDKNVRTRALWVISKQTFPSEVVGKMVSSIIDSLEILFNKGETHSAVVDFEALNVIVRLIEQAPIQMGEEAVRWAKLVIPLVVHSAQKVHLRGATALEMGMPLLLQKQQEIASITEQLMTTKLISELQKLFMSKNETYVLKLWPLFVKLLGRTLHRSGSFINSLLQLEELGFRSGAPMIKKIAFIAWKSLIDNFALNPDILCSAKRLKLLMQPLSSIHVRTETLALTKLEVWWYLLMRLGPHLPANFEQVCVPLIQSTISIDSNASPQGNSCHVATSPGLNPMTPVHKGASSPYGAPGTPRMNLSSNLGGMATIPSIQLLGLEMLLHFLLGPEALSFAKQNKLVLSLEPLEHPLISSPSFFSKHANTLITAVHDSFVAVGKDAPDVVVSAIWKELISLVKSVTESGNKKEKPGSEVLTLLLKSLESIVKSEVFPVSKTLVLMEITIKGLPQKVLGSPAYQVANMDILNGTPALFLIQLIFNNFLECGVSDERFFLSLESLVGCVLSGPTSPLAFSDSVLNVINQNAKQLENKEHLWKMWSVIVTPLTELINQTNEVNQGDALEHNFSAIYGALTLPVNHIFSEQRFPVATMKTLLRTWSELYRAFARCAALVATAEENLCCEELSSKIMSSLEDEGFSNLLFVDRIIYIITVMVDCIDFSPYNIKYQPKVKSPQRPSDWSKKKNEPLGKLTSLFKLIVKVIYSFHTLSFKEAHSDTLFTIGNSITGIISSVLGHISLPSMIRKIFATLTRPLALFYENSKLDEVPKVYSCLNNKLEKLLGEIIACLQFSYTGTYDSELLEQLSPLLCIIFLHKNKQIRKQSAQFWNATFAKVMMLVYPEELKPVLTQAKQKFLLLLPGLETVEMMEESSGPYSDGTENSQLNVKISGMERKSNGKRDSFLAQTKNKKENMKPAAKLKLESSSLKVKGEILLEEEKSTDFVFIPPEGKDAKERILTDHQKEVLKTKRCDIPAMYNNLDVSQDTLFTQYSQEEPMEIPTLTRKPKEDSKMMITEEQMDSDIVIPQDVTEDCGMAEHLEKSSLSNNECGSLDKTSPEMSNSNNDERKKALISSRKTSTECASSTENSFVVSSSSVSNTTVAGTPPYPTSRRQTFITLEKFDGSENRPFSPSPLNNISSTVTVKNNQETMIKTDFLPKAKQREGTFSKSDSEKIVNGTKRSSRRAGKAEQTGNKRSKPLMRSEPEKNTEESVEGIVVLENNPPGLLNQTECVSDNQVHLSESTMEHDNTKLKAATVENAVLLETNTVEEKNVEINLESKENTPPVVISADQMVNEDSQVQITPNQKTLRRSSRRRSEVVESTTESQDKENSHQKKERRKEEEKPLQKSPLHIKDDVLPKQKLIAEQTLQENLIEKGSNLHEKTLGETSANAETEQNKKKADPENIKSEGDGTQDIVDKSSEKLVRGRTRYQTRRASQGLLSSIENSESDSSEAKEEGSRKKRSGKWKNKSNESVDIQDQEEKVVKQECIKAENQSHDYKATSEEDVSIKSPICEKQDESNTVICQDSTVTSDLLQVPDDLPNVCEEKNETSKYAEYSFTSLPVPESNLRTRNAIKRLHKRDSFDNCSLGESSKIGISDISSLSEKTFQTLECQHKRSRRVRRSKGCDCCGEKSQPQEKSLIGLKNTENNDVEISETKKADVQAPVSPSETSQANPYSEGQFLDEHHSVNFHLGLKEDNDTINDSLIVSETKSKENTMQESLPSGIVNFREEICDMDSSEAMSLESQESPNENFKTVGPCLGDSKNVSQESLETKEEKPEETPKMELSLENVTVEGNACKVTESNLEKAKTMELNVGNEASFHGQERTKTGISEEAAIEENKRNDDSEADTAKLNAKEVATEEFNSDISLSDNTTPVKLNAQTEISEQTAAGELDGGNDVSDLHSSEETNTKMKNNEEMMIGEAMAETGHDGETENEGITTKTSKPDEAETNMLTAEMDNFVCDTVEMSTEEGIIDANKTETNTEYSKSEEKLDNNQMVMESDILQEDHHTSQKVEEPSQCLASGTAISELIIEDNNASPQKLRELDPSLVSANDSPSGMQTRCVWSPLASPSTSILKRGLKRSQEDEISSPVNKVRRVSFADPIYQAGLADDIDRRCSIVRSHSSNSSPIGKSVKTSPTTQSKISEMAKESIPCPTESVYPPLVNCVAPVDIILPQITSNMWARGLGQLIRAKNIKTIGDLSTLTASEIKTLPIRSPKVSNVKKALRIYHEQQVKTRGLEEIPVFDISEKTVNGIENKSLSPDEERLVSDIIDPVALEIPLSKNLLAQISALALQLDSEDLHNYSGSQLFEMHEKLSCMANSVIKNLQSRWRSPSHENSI

T6 sequence (Q08211 whole entry): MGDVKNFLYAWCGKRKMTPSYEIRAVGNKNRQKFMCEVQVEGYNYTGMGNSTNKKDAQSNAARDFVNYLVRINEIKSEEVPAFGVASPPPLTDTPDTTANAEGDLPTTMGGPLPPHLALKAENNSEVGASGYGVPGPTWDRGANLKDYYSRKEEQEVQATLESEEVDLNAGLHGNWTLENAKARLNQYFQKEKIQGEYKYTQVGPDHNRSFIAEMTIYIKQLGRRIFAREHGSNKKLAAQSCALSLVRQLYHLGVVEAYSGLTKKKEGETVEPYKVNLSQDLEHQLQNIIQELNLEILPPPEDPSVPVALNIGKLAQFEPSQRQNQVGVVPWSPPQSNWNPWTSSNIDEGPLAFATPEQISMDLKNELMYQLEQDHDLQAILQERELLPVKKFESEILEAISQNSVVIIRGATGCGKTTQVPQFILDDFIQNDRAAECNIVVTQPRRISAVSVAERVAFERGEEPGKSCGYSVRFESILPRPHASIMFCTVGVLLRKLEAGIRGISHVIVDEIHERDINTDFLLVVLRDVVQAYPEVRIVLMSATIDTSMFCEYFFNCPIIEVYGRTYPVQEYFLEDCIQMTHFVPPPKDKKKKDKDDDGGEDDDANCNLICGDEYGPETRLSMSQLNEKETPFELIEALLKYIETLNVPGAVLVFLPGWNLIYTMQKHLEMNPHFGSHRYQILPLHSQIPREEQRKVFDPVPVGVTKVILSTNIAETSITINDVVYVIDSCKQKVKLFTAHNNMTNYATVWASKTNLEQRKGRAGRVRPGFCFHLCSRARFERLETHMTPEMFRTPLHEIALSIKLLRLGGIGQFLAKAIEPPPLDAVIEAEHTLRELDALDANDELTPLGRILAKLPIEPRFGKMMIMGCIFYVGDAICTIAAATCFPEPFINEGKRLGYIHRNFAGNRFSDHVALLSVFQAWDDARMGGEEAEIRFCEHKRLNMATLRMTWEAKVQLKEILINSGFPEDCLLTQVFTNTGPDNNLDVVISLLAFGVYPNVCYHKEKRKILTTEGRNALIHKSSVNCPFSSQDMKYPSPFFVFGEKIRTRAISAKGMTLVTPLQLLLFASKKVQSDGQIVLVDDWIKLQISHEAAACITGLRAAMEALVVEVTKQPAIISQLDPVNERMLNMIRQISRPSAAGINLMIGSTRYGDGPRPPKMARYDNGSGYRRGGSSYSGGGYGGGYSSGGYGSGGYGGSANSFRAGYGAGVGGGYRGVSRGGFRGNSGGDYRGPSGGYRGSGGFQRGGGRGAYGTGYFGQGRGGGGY
T4 sequence (P09874 2-1014 limits assumed): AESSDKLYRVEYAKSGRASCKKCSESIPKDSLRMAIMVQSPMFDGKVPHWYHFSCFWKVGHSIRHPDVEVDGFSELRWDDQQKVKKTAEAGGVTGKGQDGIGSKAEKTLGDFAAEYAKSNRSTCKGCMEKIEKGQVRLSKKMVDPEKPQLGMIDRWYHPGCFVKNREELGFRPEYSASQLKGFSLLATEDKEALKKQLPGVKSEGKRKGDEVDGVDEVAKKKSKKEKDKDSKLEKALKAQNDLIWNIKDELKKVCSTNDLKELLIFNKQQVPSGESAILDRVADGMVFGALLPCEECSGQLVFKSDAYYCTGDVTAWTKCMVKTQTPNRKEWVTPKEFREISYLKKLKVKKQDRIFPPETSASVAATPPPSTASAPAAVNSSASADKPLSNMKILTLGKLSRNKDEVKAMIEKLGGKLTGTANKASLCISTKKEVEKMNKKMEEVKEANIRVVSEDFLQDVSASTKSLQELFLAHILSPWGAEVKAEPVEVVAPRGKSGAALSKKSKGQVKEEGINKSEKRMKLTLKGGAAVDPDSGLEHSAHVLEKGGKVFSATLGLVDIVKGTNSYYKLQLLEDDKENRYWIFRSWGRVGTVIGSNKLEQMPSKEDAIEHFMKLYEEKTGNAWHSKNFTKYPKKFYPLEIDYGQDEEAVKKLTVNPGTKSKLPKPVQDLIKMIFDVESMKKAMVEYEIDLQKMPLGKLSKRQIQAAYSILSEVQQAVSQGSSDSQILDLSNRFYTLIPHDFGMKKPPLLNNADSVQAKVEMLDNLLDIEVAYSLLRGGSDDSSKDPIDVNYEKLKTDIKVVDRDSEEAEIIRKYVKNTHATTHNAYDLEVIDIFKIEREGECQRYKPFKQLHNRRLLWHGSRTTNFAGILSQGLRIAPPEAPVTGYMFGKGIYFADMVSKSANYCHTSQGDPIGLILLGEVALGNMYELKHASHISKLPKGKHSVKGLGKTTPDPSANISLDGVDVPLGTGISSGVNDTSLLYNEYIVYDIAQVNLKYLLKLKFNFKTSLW

binding result (Flag-WWP1): binds
binding result [1]: binds
binding result [2]: binds
B1: Neural Precursor Cell Expressed Developmentally Down-Regulated Protein 4 polypeptide (NEDD4-1) (enzyme)
chain: MATCAVEVFGLLEDEENSRIVRVRVIAGIGLAKKDILGASDPYVRVTLYDPMNGVLTSVQTKTIKKSLNPKWNEEILFRVHPQQHRLLFEVFDENRLTRDDFLGQVDVPLYPLPTENPRLERPYTFKDFVLHPRSHKSRVKGYLRLKMTYLPKTSGSEDDNAEQAEELEPGWVVLDQPDAACHLQQQQEPSPLPPGWEERQDILGRTYYVNHESRRTQWKRPTPQDNLTDAENGNIQLQAQRAFTTRRQISEETESVDNRESSENWEIIREDEATMYSNQAFPSPPPSSNLDVPTHLAEELNARLTIFGNSAVSQPASSSNHSSRRGSLQAYTFEEQPTLPVLLPTSSGLPPGWEEKQDERGRSYYVDHNSRTTTWTKPTVQATVETSQLTSSQSSAGPQSQASTSDSGQQVTQPSEIEQGFLPKGWEVRHAPNGRPFFIDHNTKTTTWEDPRLKIPAHLRGKTSLDTSNDLGPLPPGWEERTHTDGRIFYINHNIKRTQWEDPRLENVAITGPAVPYSRDYKRKYEFFRRKLKKQNDIPNKFEMKLRRATVLEDSYRRIMGVKRADFLKARLWIEFDGEKGLDYGGVAREWFFLISKEMFNPYYGLFEYSATDNYTLQINPNSGLCNEDHLSYFKFIGRVAGMAVYHGKLLDGFFIRPFYKMMLHKPITLHDMESVDSEYYNSLRWILENDPTELDLRFIIDEELFGQTHQHELKNGGSEIVVTNKNKKEYIYLVIQWRFVNRIQKQMAAFKEGFFELIPQDLIKIFDENELELLMCGLGDVDVNDWREHTKYKNGYSANHQVIQWFWKAVLMMDSEKRIRLLQFVTGTSRVPMNGFAELYGSNGPQSFTVEQWGTPEKLPRAHTCFNRLDLPPYESFEELWDKLQMAIENTQGFDGVD
notes: also called endogenous NEDD4-1; immunopurified recombinant NEDD4-1

B2: PTEN of MEFs (mouse) (enzyme, UniProt O08586 2-403, looked up)
chain: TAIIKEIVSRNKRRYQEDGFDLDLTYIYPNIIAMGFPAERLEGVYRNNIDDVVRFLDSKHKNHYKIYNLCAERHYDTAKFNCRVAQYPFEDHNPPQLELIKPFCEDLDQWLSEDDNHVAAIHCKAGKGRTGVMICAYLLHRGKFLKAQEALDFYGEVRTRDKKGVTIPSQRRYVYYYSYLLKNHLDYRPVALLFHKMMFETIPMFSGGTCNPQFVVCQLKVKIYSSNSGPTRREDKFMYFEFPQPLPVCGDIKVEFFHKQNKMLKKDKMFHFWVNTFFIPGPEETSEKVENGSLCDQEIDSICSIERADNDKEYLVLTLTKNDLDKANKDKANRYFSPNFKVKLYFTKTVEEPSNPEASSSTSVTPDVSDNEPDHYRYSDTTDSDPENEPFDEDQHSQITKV
notes: also called PTEN in Wwp1+/+ and Wwp1-/- MEFs; PTEN in Nedd4+/+ and Nedd4-/- MEFs
binding result [3]: binds

Binder: B3
binding result [4]: no binding
binding result [5]: binds

binding result [6]: binds
binding result [7]: binds
binding result [8]: binds
binding result [9]: binds
binding result [10]: binds
B4: HA-PTEN (enzyme)
chain: not shown
notes: Expressed in DU145 cells and immunoprecipitated with anti-PTEN antibody for mass spectrometry; also called exogenous PTEN; pcDNA3-HA-PTEN; not shown: HA tag
